From article PMC3877283, “Development of Novel Radiogallium-Labeled Bone Imaging Agents Using Oligo-Aspartic Acid Peptides as Carriers” (PLoS ONE, 2013)
Like-named read-outs stand apart in the source and are kept apart here. Marks after values point to notes of the source that are not given here. Peptide text beside a SMILES is read from it. * marks the point of attachment. DOTA = O=C(O)CN1CCN(CC(=O)O)CCN(CC(=O)*)CCN(CC(=O)O)CC1

Columns and labels:
[1] = Biodistribution experiments in normal mice; format: in vivo, ddY mice; conditions: normal mice, i.v.
Description: (§1) Experiments with animals were conducted in strict accordance with the Guidelines for the Care and Use of Laboratory Animals of Kanazawa University. The animal experimental protocols used were approved by the Committee on Animal Experimentation of Kanazawa University (Permit Number: AP-132633). Biodistribution experiments were performed after an intravenous administration of each diluted tracer solution (37 kBq/100 µL) to 6-week-old male ddY mice (27–32 g, Japan SLC, Inc., Hamamatsu, Japan). To investigate the effect of an excess amount of bisphosphonate on biodistribution, alendronate (20 mg/kg) was intravenously administered to mice 1 minute before the intravenous injection of ^67Ga-DOTA-(Asp)14 or ^67Ga-DOTA-Bn-SCN-HBP. Four to six mice each were sacrificed by decapitation at 10, 60, and 180 minutes post-injection. Tissues of interest were removed and weighed. Complete left femurs were isolated as representative bone samples, radioactivity was determined using an auto well gamma counter, and counts were corrected for background radiation and physical decay during counting.

[2] = Biodistribution experiments in mice with pretreatment of alendronate (20 mg/kg); format: in vivo, ddY mice; conditions: for Radioactivity in Bone (Femur): Bone (complete left femur); for Radioactivity in Stomach: Stomach (footnote b)
Description: as §1

[3] = 10 min after i.v. administration, alendronate 20 mg/kg i.v. 1 minute before, male ddY mice, mean (SD) for five or six animals
[4] = 60 min (1 h) after i.v. administration, alendronate 20 mg/kg i.v. 1 minute before, male ddY mice, mean (SD) for five or six animals
[5] = 180 min (3 h) after i.v. administration, alendronate 20 mg/kg i.v. 1 minute before, male ddY mice, mean (SD) for five or six animals

Structure (SMILES): O=C(O)C[C@H](NC(=O)[C@H](CC(=O)O)NC(=O)[C@H](CC(=O)O)NC(=O)[C@H](CC(=O)O)NC(=O)[C@H](CC(=O)O)NC(=O)[C@H](CC(=O)O)NC(=O)[C@H](CC(=O)O)NC(=O)[C@H](CC(=O)O)NC(=O)[C@H](CC(=O)O)NC(=O)[C@H](CC(=O)O)NC(=O)[C@H](CC(=O)O)NC(=O)[C@H](CC(=O)O)NC(=O)[C@H](CC(=O)O)NC(=O)[C@H](CC(=O)O)NC(=O)CN1CCN(CC(=O)O)CCN(CC(=O)O)CCN(CC(=O)O)CC1)C(=O)O [67Ga-DOTA-(Asp)14, metal not drawn] ({DOTA}-DDDDDDDDDDDDDD-OH)
- accumulation of radioactivity in the femur (in words) [1]: higher accumulation
- F/B ratio (Femur:blood ratio) [2, 3]: 4.50 (0.63) ^**
- F/B ratio (Femur:blood ratio) [2, 4]: 52.96 (17.28) ^**
- F/B ratio (Femur:blood ratio) [2, 5]: 229.73 (67.08) ^**
- Radioactivity in Blood ([2]; Blood, 60 min (1 h) after i.v. administration, alendronate 20 mg/kg i.v. 1 minute before, male ddY mice, mean (SD) for five or six animals): 0.23 (0.05) ^** % injected dose
- Radioactivity in Blood ([2]; Blood, 180 min (3 h) after i.v. administration, alendronate 20 mg/kg i.v. 1 minute before, male ddY mice, mean (SD) for five or six animals): 0.06 (0.02) ^** % injected dose
- Radioactivity in Bone (Femur) [2, 3]: 8.59 (0.55) ^** % injected dose
- Radioactivity in Bone (Femur) [2, 4]: 11.81 (1.95) % injected dose
- Radioactivity in Bone (Femur) [2, 5]: 12.88 (2.30) % injected dose
- Radioactivity in Brain [2, 3]: 0.05 (0.01) % injected dose
- Radioactivity in Brain [2, 4]: 0.02 (0.00) ^* % injected dose
- Radioactivity in Brain [2, 5]: 0.01 (0.00) % injected dose
- Radioactivity in Heart ([2]; Heart, 60 min (1 h) after i.v. administration, alendronate 20 mg/kg i.v. 1 minute before, male ddY mice, mean (SD) for five or six animals): 0.24 (0.08) ^** % injected dose
- Radioactivity in Heart ([2]; Heart, 180 min (3 h) after i.v. administration, alendronate 20 mg/kg i.v. 1 minute before, male ddY mice, mean (SD) for five or six animals): 0.15 (0.07) ^** % injected dose
- Radioactivity in Kidney ([2]; Kidney, 60 min (1 h) after i.v. administration, alendronate 20 mg/kg i.v. 1 minute before, male ddY mice, mean (SD) for five or six animals): 3.28 (0.82) ^** % injected dose
- Radioactivity in Kidney ([2]; Kidney, 180 min (3 h) after i.v. administration, alendronate 20 mg/kg i.v. 1 minute before, male ddY mice, mean (SD) for five or six animals): 3.34 (0.92) ^** % injected dose
- Radioactivity in Large-intestine [2, 3]: 0.40 (0.08) ^* % injected dose
- Radioactivity in Large-intestine [2, 4]: 0.08 (0.01) ^** % injected dose
- Radioactivity in Large-intestine [2, 5]: 0.33 (0.07) ^** % injected dose
- Radioactivity in Liver ([2]; Liver, 60 min (1 h) after i.v. administration, alendronate 20 mg/kg i.v. 1 minute before, male ddY mice, mean (SD) for five or six animals): 1.39 (0.29) ^** % injected dose
- Radioactivity in Liver ([2]; Liver, 180 min (3 h) after i.v. administration, alendronate 20 mg/kg i.v. 1 minute before, male ddY mice, mean (SD) for five or six animals): 1.27 (0.72) ^** % injected dose
- Radioactivity in Lung ([2]; Lung, 180 min (3 h) after i.v. administration, alendronate 20 mg/kg i.v. 1 minute before, male ddY mice, mean (SD) for five or six animals): 2.49 (1.78) ^* % injected dose
- Radioactivity in Muscle ([2]; Muscle, 60 min (1 h) after i.v. administration, alendronate 20 mg/kg i.v. 1 minute before, male ddY mice, mean (SD) for five or six animals): 0.11 (0.07) % injected dose
- Radioactivity in Muscle ([2]; Muscle, 180 min (3 h) after i.v. administration, alendronate 20 mg/kg i.v. 1 minute before, male ddY mice, mean (SD) for five or six animals): 0.05 (0.02) % injected dose
- Radioactivity in Pancreas [2, 3]: 0.72 (0.12) ^** % injected dose
- Radioactivity in Pancreas [2, 4]: 0.15 (0.02) ^** % injected dose
- Radioactivity in Pancreas [2, 5]: 0.12 (0.07) ^* % injected dose
- Radioactivity in Small-intestine [2, 3]: 0.53 (0.09) ^* % injected dose
- Radioactivity in Small-intestine [2, 4]: 0.22 (0.05) ^** % injected dose
- Radioactivity in Small-intestine [2, 5]: 0.29 (0.12) ^** % injected dose
- Radioactivity in Spleen ([2]; Spleen, 60 min (1 h) after i.v. administration, alendronate 20 mg/kg i.v. 1 minute before, male ddY mice, mean (SD) for five or six animals): 1.03 (0.35) ^** % injected dose
- Radioactivity in Spleen ([2]; Spleen, 180 min (3 h) after i.v. administration, alendronate 20 mg/kg i.v. 1 minute before, male ddY mice, mean (SD) for five or six animals): 0.89 (0.59) ^* % injected dose
- Radioactivity in Stomach [2, 3]: 0.36 (0.09) ^* % injected dose
- Radioactivity in Stomach [2, 4]: 0.15 (0.12) % injected dose
- Radioactivity in Stomach [2, 5]: 0.11 (0.04) ^** % injected dose
- effect of alendronate pretreatment on accumulation in bone (in words) ([2]; alendronate 20 mg/kg i.v. 1 minute before tracer, mice): comparatively little effect
- tissue uptake dose at 10 min ([2]; male, ddY, mouse, in vivo, iv, total radioactivity, Blood, 10 min after i.v. administration, alendronate 20 mg/kg i.v. 1 minute before, male ddY mice, mean (SD) for five or six animals, read-out: Radioactivity in Blood): 1.94 %ID
- tissue uptake dose at 10 min ([2]; male, ddY, mouse, in vivo, iv, total radioactivity, Heart, 10 min after i.v. administration, alendronate 20 mg/kg i.v. 1 minute before, male ddY mice, mean (SD) for five or six animals, read-out: Radioactivity in Heart): 0.88 %ID
- tissue uptake dose at 10 min ([2]; male, ddY, mouse, in vivo, iv, total radioactivity, Kidney, 10 min after i.v. administration, alendronate 20 mg/kg i.v. 1 minute before, male ddY mice, mean (SD) for five or six animals, read-out: Radioactivity in Kidney): 16.7 %ID
- tissue uptake dose at 10 min ([2]; male, ddY, mouse, in vivo, iv, total radioactivity, Liver, 10 min after i.v. administration, alendronate 20 mg/kg i.v. 1 minute before, male ddY mice, mean (SD) for five or six animals, read-out: Radioactivity in Liver): 2.2 %ID
- tissue uptake dose at 10 min ([2]; male, ddY, mouse, in vivo, iv, total radioactivity, Lung, 10 min after i.v. administration, alendronate 20 mg/kg i.v. 1 minute before, male ddY mice, mean (SD) for five or six animals, read-out: Radioactivity in Lung): 5.86 %ID
- tissue uptake dose at 1 h ([2]; male, ddY, mouse, in vivo, iv, total radioactivity, Lung, 60 min (1 h) after i.v. administration, alendronate 20 mg/kg i.v. 1 minute before, male ddY mice, mean (SD) for five or six animals): 4.07 %ID
- tissue uptake dose at 10 min ([2]; male, ddY, mouse, in vivo, iv, total radioactivity, Muscle, 10 min after i.v. administration, alendronate 20 mg/kg i.v. 1 minute before, male ddY mice, mean (SD) for five or six animals, read-out: Radioactivity in Muscle): 0.53 %ID
- tissue uptake dose at 10 min ([2]; male, ddY, mouse, in vivo, iv, total radioactivity, Spleen, 10 min after i.v. administration, alendronate 20 mg/kg i.v. 1 minute before, male ddY mice, mean (SD) for five or six animals, read-out: Radioactivity in Spleen): 1.86 %ID
